This is an account of results in publication PMC3098719 (Molecular cell, 2008).

The term stoichiometry N denotes the number of molecules, sites or subunits per partner or assembly.

The target of data set [1] is T1, Kae1 (residues 1-328 of Methanococcus jannaschii MJ1130), untagged (Methanococcus jannaschii, UniProt Q58530 1-328).
T1 sequence (looked up): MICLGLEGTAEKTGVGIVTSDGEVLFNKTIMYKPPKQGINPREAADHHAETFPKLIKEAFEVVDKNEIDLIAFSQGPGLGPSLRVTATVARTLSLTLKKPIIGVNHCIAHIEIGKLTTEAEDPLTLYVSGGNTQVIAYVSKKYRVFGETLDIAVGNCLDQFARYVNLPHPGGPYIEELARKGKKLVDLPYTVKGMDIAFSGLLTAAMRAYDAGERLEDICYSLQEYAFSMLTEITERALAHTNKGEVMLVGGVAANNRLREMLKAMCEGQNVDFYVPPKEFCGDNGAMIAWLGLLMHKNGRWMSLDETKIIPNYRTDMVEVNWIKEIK
The experiment in a line: pull-down.

Data set [2] deals with the molecule itself. The data set is described as follows: SEC. In general terms: Size exclusion chromatography separates by hydrodynamic size, large species first.
Data set [3] addresses T2, GST-Kae1 (residues 1-328 of Methanococcus jannaschii MJ1130) (Methanococcus jannaschii, UniProt Q58530 1-328).
T2 sequence (looked up): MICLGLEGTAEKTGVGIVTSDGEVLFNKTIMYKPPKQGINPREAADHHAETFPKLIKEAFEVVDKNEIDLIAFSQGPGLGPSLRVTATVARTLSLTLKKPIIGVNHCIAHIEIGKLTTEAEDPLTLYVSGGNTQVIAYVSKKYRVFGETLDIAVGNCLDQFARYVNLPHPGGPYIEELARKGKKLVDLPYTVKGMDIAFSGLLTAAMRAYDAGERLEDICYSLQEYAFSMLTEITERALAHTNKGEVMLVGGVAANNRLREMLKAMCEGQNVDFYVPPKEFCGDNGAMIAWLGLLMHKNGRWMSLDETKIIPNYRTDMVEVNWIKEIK
The data set is described as follows: pull-down.

The target in data set [4] is T3, GST-Kae1 E236K (M. jannaschii) (Methanococcus jannaschii, UniProt Q58530 1-328, E236K).
T3 sequence (looked up): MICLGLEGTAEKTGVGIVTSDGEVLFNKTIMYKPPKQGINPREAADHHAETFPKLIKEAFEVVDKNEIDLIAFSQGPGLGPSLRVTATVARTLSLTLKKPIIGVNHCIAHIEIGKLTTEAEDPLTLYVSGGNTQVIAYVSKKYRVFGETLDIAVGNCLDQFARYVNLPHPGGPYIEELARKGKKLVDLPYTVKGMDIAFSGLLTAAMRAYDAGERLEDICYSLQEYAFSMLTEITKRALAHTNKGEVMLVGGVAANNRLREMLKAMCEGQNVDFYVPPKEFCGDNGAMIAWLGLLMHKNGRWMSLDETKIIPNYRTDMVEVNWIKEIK
The experiment in a line: pull-down.

Data set [5] concerns the target T4, GST-Kae1 E233R (M. jannaschii) (Methanococcus jannaschii, UniProt Q58530 1-328, E233R).
T4 sequence (looked up): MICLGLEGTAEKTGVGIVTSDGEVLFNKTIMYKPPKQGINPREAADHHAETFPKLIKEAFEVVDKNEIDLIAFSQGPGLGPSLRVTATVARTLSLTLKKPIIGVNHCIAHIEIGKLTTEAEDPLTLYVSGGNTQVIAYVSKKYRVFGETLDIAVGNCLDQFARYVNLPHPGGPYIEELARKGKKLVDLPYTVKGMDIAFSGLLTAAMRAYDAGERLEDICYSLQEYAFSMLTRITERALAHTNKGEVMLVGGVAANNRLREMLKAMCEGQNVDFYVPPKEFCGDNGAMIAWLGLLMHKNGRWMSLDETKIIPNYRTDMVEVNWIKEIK
The data set is described as follows: pull-down.

Data set [6] deals with T5, Bud32 V486Y (M. jannaschii) (Methanococcus jannaschii, UniProt Q58530 328-535, V486Y).
T5 sequence (looked up): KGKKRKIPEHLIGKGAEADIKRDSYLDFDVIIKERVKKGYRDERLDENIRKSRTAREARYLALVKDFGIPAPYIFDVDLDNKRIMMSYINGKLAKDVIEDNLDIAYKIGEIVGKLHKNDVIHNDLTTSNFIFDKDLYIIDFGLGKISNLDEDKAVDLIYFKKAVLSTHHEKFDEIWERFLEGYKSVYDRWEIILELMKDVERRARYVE
The data set is described as follows: pull-down.

Data set [7] concerns the target T6, Bud32 K365E (M. jannaschii) (Methanococcus jannaschii, UniProt Q58530 328-535, K365E).
T6 sequence (looked up): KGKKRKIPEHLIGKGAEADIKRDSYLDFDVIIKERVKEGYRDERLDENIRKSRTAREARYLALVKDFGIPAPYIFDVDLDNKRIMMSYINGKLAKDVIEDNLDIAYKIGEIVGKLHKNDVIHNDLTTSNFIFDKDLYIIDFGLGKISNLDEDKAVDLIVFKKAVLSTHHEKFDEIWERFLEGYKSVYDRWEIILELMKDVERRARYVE
The data set is described as follows: pull-down.

Data set [8] concerns the target T7, Bud32 K489E (M. jannaschii) (Methanococcus jannaschii, UniProt Q58530 328-535, K489E).
T7 sequence (looked up): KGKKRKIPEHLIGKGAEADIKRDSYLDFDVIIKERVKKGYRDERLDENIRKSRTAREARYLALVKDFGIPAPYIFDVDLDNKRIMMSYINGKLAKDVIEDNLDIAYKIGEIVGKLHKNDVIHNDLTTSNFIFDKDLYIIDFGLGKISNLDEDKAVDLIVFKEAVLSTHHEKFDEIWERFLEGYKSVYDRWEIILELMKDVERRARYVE
The data set is described as follows: pull-down.

For data set [9], the target named is T8, Bud32 R380E (M. jannaschii) (Methanococcus jannaschii, UniProt Q58530 328-535, R380E).
T8 sequence (looked up): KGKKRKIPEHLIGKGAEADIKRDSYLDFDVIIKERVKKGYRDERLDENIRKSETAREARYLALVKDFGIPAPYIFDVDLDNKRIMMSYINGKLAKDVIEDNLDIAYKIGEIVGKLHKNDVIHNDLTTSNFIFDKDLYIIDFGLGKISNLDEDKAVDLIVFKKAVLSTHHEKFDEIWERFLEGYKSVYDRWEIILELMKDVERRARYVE
The experiment in a line: pull-down.

In data set [10] the target is MJ1130 (Kae1-Bud32 fusion of Methanococcus jannaschii) as used for the complex with Cgi121 (Methanococcus jannaschii) (UniProt Q58530). The experiment in a line: crystal structure.
Data set [11] addresses T9, Bud32 (residues 328-535 of Methanococcus jannaschii MJ1130), untagged (Methanococcus jannaschii, UniProt Q58530 328-535).
T9 sequence (looked up): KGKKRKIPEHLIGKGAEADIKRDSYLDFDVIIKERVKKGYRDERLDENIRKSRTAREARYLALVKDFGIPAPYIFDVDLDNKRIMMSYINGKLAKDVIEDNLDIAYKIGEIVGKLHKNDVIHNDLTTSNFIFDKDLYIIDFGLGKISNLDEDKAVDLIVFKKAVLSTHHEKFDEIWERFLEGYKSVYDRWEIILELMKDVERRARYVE
The experiment in a line: pull-down.

B1: GST-Pcc1 (Pyrococcus furiosus PF2011) (natural protein, UniProt Q8TZI1 1-82, looked up)
chain: MKAKRVQAKIEIEFPSEDVAKVVYEAVLYEHLSVPYRRSEIDFKLEGKKIILDIKATDSSALRGTVNSYLRWIKAAIDVIEV
As to B1, in [1], the binding result is “binds”.

B2: Pcc1 A75Y (P. furiosus) (natural protein, Pyrococcus furiosus, UniProt Q8TZI1 1-82, looked up)
chain: MKAKRVQAKIEIEFPSEDVAKVVYEAVLYEHLSVPYRRSEIDFKLEGKKIILDIKATDSSALRGTVNSYLRWIKYAIDVIEV
Regarding B2, the “stoichiometry N” value in data set [2] stood at 2.

B3: Pcc1 V79R (P. furiosus) (natural protein, Pyrococcus furiosus, UniProt Q8TZI1 1-82, looked up)
chain: MKAKRVQAKIEIEFPSEDVAKVVYEAVLYEHLSVPYRRSEIDFKLEGKKIILDIKATDSSALRGTVNSYLRWIKAAIDRIEV
In the case of B3, in data set [2], the “stoichiometry N” value stood at 2.

B4: Pcc1 (Pyrococcus furiosus PF2011), untagged (natural protein, UniProt Q8TZI1 1-82, looked up)
chain: MKAKRVQAKIEIEFPSEDVAKVVYEAVLYEHLSVPYRRSEIDFKLEGKKIILDIKATDSSALRGTVNSYLRWIKAAIDVIEV
Consider B4, for which the binding result in [3], in data set [4] and in [5] was “binds” in each case.

B5: Pcc1 A75Y/V79R (P. furiosus) (natural protein, Pyrococcus furiosus, UniProt Q8TZI1 1-82, looked up)
chain: MKAKRVQAKIEIEFPSEDVAKVVYEAVLYEHLSVPYRRSEIDFKLEGKKIILDIKATDSSALRGTVNSYLRWIKYAIDRIEV
For the molecule B5, the “stoichiometry N” value in data set [2] is 2.

B6: Pcc1 E30R (P. furiosus) (natural protein, Pyrococcus furiosus, UniProt Q8TZI1 1-82, looked up)
chain: MKAKRVQAKIEIEFPSEDVAKVVYEAVLYRHLSVPYRRSEIDFKLEGKKIILDIKATDSSALRGTVNSYLRWIKAAIDVIEV
B6: the “stoichiometry N” value in [2] came out at 2.

B7: GST-Cgi121 (Methanococcus jannaschii MJ0187) (natural protein, UniProt Q57646 1-145, looked up)
chain: MIIRGIRGARINNEIFNLGLKFQILNADVVATKKHVLHAINQAKTKKPIAKSFWMEILVRASGQRQIHEAIKIIGAKDGNVCLICEDEETFRKIYELIGGEIDDSVLEINEDKERLIREIFKIRGFGNVVERVLEKIALIELKKE
As for B7, the binding result in data set [6], in data set [7], in [8] and in data set [9] was “binds” in each case. The same molecule displayed a stoichiometry N (Cgi121 per MJ1130) in data set [10] of 1.

B8: GST-Cgi121 A138R (M. jannaschii) (natural protein, Methanococcus jannaschii, UniProt Q57646 1-145, looked up)
chain: MIIRGIRGARINNEIFNLGLKFQILNADVVATKKHVLHAINQAKTKKPIAKSFWMEILVRASGQRQIHEAIKIIGAKDGNVCLICEDEETFRKIYELIGGEIDDSVLEINEDKERLIREIFKIRGFGNVVERVLEKIRLIELKKE
Turning to B8, the binding result in [11] is recorded as “binds”.

B9: GST-Cgi121 L134E (M. jannaschii) (natural protein, Methanococcus jannaschii, UniProt Q57646 1-145, looked up)
chain: MIIRGIRGARINNEIFNLGLKFQILNADVVATKKHVLHAINQAKTKKPIAKSFWMEILVRASGQRQIHEAIKIIGAKDGNVCLICEDEETFRKIYELIGGEIDDSVLEINEDKERLIREIFKIRGFGNVVERVEEKIALIELKKE
Regarding B9, the binding result in [11] is on record as “binds”.

B10: GST-Cgi121 L139R (M. jannaschii) (natural protein, Methanococcus jannaschii, UniProt Q57646 1-145, looked up)
chain: MIIRGIRGARINNEIFNLGLKFQILNADVVATKKHVLHAINQAKTKKPIAKSFWMEILVRASGQRQIHEAIKIIGAKDGNVCLICEDEETFRKIYELIGGEIDDSVLEINEDKERLIREIFKIRGFGNVVERVLEKIARIELKKE
On to B10, for which the binding result in data set [11] is reported as “binds”.
